Reference: patent publication US20210122826A1 (MIT, published 2021)

Key:
Test in all cases: flow, Jurkat, 100 nM Ab
Human Clec10A = target: T1, Human Clec10A (human, UniProt Q8IUN9 1-316)
T1 construct: also called hClec10A
T1 sequence: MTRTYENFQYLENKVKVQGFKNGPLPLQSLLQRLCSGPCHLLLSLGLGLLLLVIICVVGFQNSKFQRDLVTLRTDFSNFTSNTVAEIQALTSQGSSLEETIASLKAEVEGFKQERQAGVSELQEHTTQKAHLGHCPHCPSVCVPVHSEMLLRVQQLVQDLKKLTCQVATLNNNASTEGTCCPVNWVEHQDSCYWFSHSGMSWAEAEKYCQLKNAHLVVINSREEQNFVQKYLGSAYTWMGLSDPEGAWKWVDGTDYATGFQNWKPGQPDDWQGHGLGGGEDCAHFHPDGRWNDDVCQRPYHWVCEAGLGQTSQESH

Human KLRG1 = target: T2, Human KLRG1 (human, UniProt Q96E93 1-195)
T2 construct: also called hKLRG1
T2 sequence: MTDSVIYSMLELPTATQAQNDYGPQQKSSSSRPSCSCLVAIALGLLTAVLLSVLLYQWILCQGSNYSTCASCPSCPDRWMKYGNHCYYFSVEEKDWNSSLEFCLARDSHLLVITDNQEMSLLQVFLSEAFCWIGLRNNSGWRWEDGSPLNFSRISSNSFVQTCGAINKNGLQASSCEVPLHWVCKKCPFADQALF

Human Clec7A = target: T3, Human Clec7A (human, UniProt Q9BXN2 1-247)
T3 construct: also called hClec7A
T3 sequence: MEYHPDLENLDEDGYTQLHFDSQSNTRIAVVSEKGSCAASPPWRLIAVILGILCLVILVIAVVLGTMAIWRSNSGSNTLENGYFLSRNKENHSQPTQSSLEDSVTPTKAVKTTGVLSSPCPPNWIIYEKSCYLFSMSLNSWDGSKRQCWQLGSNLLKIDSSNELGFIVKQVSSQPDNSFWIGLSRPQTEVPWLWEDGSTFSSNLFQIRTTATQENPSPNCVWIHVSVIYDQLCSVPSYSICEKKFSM

Human Clec9A = target: T4, Human Clec9A (human, UniProt Q6UXN8 1-241)
T4 construct: also called hClec9A
T4 sequence (Q6UXN8 whole entry): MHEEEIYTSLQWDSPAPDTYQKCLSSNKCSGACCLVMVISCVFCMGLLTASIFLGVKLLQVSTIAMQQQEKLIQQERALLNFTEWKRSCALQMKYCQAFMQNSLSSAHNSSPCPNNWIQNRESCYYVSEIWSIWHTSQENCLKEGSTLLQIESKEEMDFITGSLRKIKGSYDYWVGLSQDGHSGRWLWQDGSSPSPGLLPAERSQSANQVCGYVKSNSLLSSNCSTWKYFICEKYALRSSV

Human CD209 = target: T5, Human CD209 (human, UniProt Q9NNX6 1-404)
T5 construct: also called hCD209
T5 sequence: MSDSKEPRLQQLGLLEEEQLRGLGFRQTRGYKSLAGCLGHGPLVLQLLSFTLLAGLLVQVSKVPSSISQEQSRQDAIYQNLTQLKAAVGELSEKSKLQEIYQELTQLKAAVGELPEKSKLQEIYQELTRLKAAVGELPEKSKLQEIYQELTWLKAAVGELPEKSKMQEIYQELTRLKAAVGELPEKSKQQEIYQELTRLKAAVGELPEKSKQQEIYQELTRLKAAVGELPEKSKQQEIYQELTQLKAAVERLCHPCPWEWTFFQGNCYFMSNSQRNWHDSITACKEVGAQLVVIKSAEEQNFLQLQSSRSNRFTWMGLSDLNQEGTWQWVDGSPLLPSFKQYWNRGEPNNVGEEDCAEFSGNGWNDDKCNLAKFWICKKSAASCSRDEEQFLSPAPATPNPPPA

Human Clec12B = target: T6, Human Clec12B (human, UniProt Q2HXU8 1-276)
T6 construct: also called hClec12B
T6 sequence: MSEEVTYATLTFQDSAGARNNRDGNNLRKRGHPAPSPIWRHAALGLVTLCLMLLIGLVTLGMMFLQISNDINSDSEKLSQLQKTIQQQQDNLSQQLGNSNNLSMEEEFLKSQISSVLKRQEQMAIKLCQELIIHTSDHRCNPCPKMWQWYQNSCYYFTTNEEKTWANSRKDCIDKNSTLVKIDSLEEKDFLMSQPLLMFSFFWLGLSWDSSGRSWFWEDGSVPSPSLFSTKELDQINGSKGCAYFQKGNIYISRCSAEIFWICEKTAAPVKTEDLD

Human CD94 = target: T7, Human CD94 (human, UniProt Q13241 1-179)
T7 construct: also called hCD94
T7 sequence: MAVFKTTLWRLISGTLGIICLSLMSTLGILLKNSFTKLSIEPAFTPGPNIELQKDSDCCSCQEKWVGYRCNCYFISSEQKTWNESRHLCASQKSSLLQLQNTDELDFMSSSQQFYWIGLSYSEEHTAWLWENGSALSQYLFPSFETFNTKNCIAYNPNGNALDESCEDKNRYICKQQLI

Human Clec4E = target: T8, Human Clec4E (human, UniProt Q9ULY5 1-219)
T8 construct: also called hClec4E
T8 sequence: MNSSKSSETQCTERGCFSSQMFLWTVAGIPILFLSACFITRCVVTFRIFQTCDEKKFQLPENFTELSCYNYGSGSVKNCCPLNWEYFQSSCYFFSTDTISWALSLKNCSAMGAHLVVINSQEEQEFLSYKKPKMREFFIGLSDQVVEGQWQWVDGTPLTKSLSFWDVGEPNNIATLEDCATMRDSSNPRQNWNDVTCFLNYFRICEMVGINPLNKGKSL

Human KLRF2 = target: T9, Human KLRF2 (human, UniProt D3W0D1 1-207)
T9 construct: also called hKLRF2
T9 sequence: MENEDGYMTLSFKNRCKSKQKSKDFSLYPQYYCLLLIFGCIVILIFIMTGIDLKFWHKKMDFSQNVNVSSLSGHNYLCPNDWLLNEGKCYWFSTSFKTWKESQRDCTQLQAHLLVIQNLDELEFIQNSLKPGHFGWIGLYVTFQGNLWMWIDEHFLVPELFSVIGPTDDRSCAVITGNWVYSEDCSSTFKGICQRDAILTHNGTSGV

Human OLR1 = target: T10, Human OLR1 (human, UniProt P78380 1-273)
T10 construct: also called hOLR1

cynomolgus CD161 = target: T11, cynomolgus CD161 (cynomolgus)
T11 construct: UniProt A0A2K5WYI1; also called cynoCD161
T11 chain: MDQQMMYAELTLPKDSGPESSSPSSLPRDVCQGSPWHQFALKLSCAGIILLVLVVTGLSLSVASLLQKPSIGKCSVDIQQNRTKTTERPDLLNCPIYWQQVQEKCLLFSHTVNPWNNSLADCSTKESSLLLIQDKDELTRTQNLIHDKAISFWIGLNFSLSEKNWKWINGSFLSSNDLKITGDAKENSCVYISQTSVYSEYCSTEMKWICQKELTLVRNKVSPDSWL

B1: KW1.3.12 (antibody, human IgG1, V domains shown)
VH: EVQLVESGGGLVQPGGSLRLSCAASGFTFSSYAMSWVRQAPGKGLEWVSTISGSGGSTYYADSVKGRFTISRDNSRNTLYLQMNSLRAEDTAVYYCARGGLIPSGFDYWGQGTLVTVSS
VL: DIQMTQSPSSLSASVGDRVTITCRASQSISSYLNWYQQKPGKAPKLLIYAASSLLSGVPSRFSGSGSGTDFTLTISSLQPEDFATYYCQQTYSAPLTFGQGTKVEIK
MFI normalized to WT (Human Clec10A): 0.9
MFI normalized to WT (Human KLRG1): 1.25
MFI normalized to WT (Human Clec7A): 1.38
MFI normalized to WT (Human Clec9A): 1.11
MFI normalized to WT (Human CD209): 0.91
MFI normalized to WT (Human Clec12B): 1.1
MFI normalized to WT (Human CD94): 1.07
MFI normalized to WT (Human Clec4E): 1.17
MFI normalized to WT (Human KLRF2): 1.08
MFI normalized to WT (Human OLR1): 1.24
MFI normalized to WT (cynomolgus CD161): 117

B2: KM12.4.7 (antibody, V domains shown)
VH: EVQLVESGGGLVQPGGSLRLPCAASGFTFSSYAMSWIRQAPGKGLEWVSAISGSGGSIYYADSVKGRFTISRDNSKNTLYLQMDSLRAEDTAVYYCARGYSDSYFYGPYYTFDYWGQGTLVTVSS
VL: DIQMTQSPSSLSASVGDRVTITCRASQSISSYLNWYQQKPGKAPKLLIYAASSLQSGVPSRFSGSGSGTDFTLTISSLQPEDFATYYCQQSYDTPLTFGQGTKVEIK
MFI normalized to WT (Human Clec10A): 1.01
MFI normalized to WT (Human KLRG1): 1.25
MFI normalized to WT (Human Clec7A): 1.36
MFI normalized to WT (Human Clec9A): 1.17
MFI normalized to WT (Human CD209): 0.97
MFI normalized to WT (Human Clec12B): 1.12
MFI normalized to WT (Human CD94): 1.2
MFI normalized to WT (Human Clec4E): 1.01
MFI normalized to WT (Human KLRF2): 1.13
MFI normalized to WT (Human OLR1): 1.3
MFI normalized to WT (cynomolgus CD161): 116

B3: KW7.3.7 (antibody, V domains shown)
VH: EVQLVESGGGLVQPGGSLRLSCAASGFTFSSYAMSWVRQAPGKGLEWVSATSGSGGSTYYADSAKGRFTISRDNSKNTLYLQMNSLRAEDTAVYYCARGGYLPDAFDYWGRGTLVTVSS
VL: DIQMTQSPSSLSASVGDRVTITCWASQSISSYLNWYQQEPGKAPKLLIYAASSLQSGVPSRFSGSGSGTDFTLTISSLQPEDFATYYCQQTYSTPLTFGQGTKVEIK
MFI normalized to WT (Human Clec10A): 0.89
MFI normalized to WT (Human KLRG1): 1.06
MFI normalized to WT (Human Clec7A): 1.18
MFI normalized to WT (Human Clec9A): 1.01
MFI normalized to WT (Human CD209): 0.85
MFI normalized to WT (Human Clec12B): 1.05
MFI normalized to WT (Human CD94): 1.01
MFI normalized to WT (Human Clec4E): 0.88
MFI normalized to WT (Human KLRF2): 1.03
MFI normalized to WT (Human OLR1): 1.15

B4: KW17.3.4 (antibody, V domains shown)
VH: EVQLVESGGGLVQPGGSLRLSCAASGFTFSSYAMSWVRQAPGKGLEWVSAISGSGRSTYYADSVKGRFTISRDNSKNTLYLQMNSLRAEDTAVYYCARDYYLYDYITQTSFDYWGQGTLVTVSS
VL: QSVLTQPPSVSGAPGQRVTISCTGSSSNIGAGYDVHWYQQLPGTAPKLLIYGNSNRPSGVPDRFSGSQSGTSASLAITGLQAEDEADYYCQSYNSGHTVFGGGTQLTVL
MFI normalized to WT (Human Clec10A): 0.98
MFI normalized to WT (Human KLRG1): 1.08
MFI normalized to WT (Human Clec7A): 1.16
MFI normalized to WT (Human Clec9A): 1.13
MFI normalized to WT (Human CD209): 0.94
MFI normalized to WT (Human Clec12B): 1.09
MFI normalized to WT (Human CD94): 0.97
MFI normalized to WT (Human Clec4E): 0.97
MFI normalized to WT (Human KLRF2): 1.03
MFI normalized to WT (Human OLR1): 1.03
MFI normalized to WT (cynomolgus CD161): 1.03
